Patent US20260098059A1 (ENDOMET BIOSCIENCES, published 2026)
[ ]: non-standard residue; d: D form. The star is where a group is joined. NMeW = CN[C@@H](Cc1c[nH]c2ccccc12)C(=O)O; Stearoyl = CCCCCCCCCCCCCCCCCC(=O)*; αMeV = CC(C)[C@](C)(N)C(=O)O; αMeS = C[C@](N)(CO)C(=O)O

Tests used:
[1] = molecular target: T1, β-catenin in mouse endometriosis lesions (mouse, UniProt Q02248 2-781); assay: immunofluorescence co-localisation in mouse lesions
T1 construct: Endogenous protein in fixed tissue sections; also called cytoplasmic β-catenin
T1 sequence (looked up): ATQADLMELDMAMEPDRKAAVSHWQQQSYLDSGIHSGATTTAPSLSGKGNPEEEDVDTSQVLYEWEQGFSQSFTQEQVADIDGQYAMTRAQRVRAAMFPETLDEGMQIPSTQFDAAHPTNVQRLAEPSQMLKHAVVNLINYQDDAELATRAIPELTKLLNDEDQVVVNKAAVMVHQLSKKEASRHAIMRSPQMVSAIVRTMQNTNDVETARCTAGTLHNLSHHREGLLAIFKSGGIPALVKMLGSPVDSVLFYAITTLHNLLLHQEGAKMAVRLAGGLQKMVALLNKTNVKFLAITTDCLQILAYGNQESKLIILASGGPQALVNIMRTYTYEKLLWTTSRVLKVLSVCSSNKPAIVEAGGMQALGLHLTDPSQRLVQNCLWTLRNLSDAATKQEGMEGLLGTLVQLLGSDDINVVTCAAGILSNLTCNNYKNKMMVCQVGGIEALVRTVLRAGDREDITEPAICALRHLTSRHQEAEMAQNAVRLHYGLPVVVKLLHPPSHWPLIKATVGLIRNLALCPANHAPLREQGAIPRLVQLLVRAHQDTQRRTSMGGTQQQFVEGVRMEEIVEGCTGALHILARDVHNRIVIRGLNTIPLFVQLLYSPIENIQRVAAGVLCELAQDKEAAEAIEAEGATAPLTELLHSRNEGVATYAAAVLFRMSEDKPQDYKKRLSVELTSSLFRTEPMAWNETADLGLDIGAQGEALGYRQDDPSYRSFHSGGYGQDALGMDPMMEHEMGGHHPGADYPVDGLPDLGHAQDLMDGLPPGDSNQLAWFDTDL
Procedure: Endometriosis was established in a mouse model of disease. Mice were allowed to establish endometriosis for 3 weeks. […] To assess the localization of the peptides and β-catenin, lesions from the endometriosis mouse model were assessed. On the last day of treatment, in order to visualize the peptide localization to the lesion(s), mice were dosed with a biotinylated tagged peptide therapeutic or control. Mice were euthanized, lesions were removed, and fixed in formalin for histology and immunohistochemistry. […] Immunohistochemical negative controls were performed on lesion sections from all treatment groups using IgG non-specific antibodies (Rabbit-IgG, AbCam 1:100).

β-catenin = molecular target: T2, β-catenin (UniProt P35222 134-665, limits assumed, biotinylated in the SPR and plate assays); assay: cell-based or functional assay
T2 sequence (looked up): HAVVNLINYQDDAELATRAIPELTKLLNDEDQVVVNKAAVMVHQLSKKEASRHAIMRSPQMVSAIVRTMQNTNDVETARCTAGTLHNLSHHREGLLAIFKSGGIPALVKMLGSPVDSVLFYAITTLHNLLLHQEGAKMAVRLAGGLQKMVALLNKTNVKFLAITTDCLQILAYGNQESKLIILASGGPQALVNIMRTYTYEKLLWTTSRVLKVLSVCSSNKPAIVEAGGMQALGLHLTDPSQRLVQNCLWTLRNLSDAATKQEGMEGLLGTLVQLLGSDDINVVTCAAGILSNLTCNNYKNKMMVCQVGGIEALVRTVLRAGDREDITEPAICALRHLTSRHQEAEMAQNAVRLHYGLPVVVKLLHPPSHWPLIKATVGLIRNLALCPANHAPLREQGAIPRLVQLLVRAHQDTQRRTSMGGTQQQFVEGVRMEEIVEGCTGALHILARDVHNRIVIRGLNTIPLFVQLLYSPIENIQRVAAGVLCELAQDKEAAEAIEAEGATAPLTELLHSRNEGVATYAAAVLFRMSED

B1: Peptide 4 (SEQ ID NO: 393/500) (peptide)
peptide: Stearoyl-W[NMeW]E[αMeS]ILDEH[αMeV]QRVW-OH
notes: 393 used
Question: What does the source list for B1?
Answer: binding result [1]: binds; Proliferation IC50, Endo cells (β-catenin): 5 µM; Proliferation IC50, Wnt dependent cells (β-catenin): 1.7 µM; Wnt Reporter EC50 (β-catenin): ≤ 7.5 µM
